Primed or numbered codes have the meaning given here. [ ]: non-standard residue; d: D form. α′‑methyl‑α′,β′‑epoxide = C-terminal α′-methyl-α′,β′-epoxyketone; hPhe = N[C@@H](CCc1ccccc1)C(=O)O; Nle = CCCC[C@H](N)C(=O)O
Legend:
[1] = molecular target: proteasome in bovine aortic endothelial (BAE) cells (bovine); test: cell-based or functional assay
[2] = molecular target: proteasome in bovine aortic endothelial (BAE) cells (bovine); test: cell-based or functional assay; remark: listed apart in the source

| Binder | IC50, inhibition of BAE cell proliferation ([methyl-3H]-thymidine incorporation) [1] [nM] | IC50, inhibition of BAE cell proliferation [2] [nM] |
| --- | --- | --- |
| Ac-LFLL-{α′‑methyl‑α′,β′‑epoxide} [Ac-LFLL-epoxide] | 16 |  |
| Ac-[Nle]PFL-{α′‑methyl‑α′,β′‑epoxide} [Ac-NorLPFL-Ex] |  | 53000 |
| Ac-ALLL-{α′‑methyl‑α′,β′‑epoxide} [Ac-ALLL-epoxide] | 83 |  |
| Ac-GPFL-{α′‑methyl‑α′,β′‑epoxide} [Ac-GPFL-Ex] |  | 58000 |
| Ac-LALL-{α′‑methyl‑α′,β′‑epoxide} [Ac-LALL-epoxide] | 700 |  |
| Ac-LLFL-{α′‑methyl‑α′,β′‑epoxide} [Ac-LLFL-epoxide] | 7 |  |
| Ac-LLAL-{α′‑methyl‑α′,β′‑epoxide} [Ac-LLAL-epoxide] | 34 |  |

Other lines, results leading:

| IC50, inhibition of BAE cell proliferation ([methyl-3H]-thymidine incorporation) [1] [nM] | IC50, inhibition of BAE cell proliferation [2] [nM] | Binder |
| --- | --- | --- |
| 20 |  | Ac-[hPhe]LFL-{α′‑methyl‑α′,β′‑epoxide} [compound 16] |
|  | 600 | isooctanoyl-Pro-Phe-Leu-{α′,β′‑epoxide with α′‑methyl (epoxyketone)} (also: C-terminal Leu as α′,β′-epoxyketone (epoxide) with α′-methyl substituent) [Isooctanioc-PFL-Ex] |
|  | 400 | pyrazinecarbonyl-Pro-Phe-Leu-{α′,β′‑epoxide with α′‑methyl (epoxyketone)} (also: C-terminal Leu as α′,β′-epoxyketone (epoxide) with α′-methyl substituent) [Pyrazinecarbonyl-PFL-Ex] |
|  | 400 | {N‑dimethylaminobenzoyl}-Pro-Phe-Leu-{α′,β′‑epoxide with α′‑methyl (epoxyketone)} (also: C-terminal Leu as α′,β′-epoxyketone (epoxide) with α′-methyl substituent) [N-dimethylaminobenzoyl-PFL-EX] |
